In patent publication US20260000781A1, “FC CONJUGATES INCLUDING AN INHIBITOR OF CD73 AND USES THEREOF” (Cidara Therapeutics, Inc., priority 2022, published 2026):

Columns and labels:
[1] = target: T1, human CD73 expressed on cells (human) (UniProt P21589); test: cell-based or functional assay
T1 sequence (looked up): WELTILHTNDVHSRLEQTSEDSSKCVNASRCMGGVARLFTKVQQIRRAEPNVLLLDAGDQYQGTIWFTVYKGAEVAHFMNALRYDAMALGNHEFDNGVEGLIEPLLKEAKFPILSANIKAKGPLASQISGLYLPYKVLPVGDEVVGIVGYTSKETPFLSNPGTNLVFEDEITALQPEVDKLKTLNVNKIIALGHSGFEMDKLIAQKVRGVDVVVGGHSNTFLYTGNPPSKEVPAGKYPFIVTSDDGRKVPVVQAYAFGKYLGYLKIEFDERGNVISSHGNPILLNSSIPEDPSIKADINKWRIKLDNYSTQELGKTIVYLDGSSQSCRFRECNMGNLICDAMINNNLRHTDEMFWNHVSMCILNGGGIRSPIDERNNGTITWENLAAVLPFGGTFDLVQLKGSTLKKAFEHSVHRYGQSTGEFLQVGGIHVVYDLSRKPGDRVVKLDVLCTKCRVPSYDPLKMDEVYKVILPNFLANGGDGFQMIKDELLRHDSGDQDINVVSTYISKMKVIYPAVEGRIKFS

[2] = target: T2, recombinant human CD73 enzyme (human) (UniProt P21589); test: cell-based or functional assay
T2 sequence (looked up): T1 sequence (looked up)

Substance: hIgG1 isotype control (antibody)
- Cell internalization EC50 (nM), Fab-ZAP saporin assay, MDA-MB-231 [1]: > 100 nM

Substance: Oleclumab (antibody)
- cell-free CD73 enzyme inhibition, maximal inhibition [2]: 80%
